Measured values: patent US20150315607A1 (ACADEMIA SINICA, published 2015)

T1: CYN1-EAT1 (Oryza sativa (rice), UniProt Q7X8R0 1-464)
T1 construct: BiFC construct expressed in rice protoplasts
T1 sequence: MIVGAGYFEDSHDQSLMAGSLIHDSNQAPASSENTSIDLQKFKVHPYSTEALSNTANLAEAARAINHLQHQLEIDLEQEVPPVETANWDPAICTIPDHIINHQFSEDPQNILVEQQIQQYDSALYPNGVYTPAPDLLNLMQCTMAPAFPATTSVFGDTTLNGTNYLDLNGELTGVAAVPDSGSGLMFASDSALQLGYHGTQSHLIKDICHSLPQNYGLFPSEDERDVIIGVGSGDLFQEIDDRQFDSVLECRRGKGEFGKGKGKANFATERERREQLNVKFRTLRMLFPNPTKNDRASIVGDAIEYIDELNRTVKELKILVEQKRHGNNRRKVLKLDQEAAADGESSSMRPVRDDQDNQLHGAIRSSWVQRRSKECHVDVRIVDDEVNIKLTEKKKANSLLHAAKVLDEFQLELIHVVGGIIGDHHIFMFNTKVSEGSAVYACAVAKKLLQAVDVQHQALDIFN

B1: ETERNAL TAPETUM 1 (EAT1) (other)
chain: T1 sequence
B2: transcription factor bHLH142 (other)
chain: MYHPQCELLMPLESLEMDVGQSHLAAAVAAAMPGELNFHLLHSLDAAAAAASSTAASASSQPTVDYFFGGADQQPPPPAAMQYDQLAAPHHHQTVAMLRDYYGGHYPPAAAAAAATEAYFRGGPRTAGSSSLVFGPADDESAFMVGPFESSPTPRSGGGRKRSRATAGFHGGGPANGVEKKEKQRRLRLTEKYNALMLLIPNRTKEDRATVISDAIEYIQELGRTVEELTLLVEKKRRRREMQGDVVDAATSSVVAGMDQAAESSEGEVMAAAAMGAVAPPPRQAPIRSTYIQRRSKETFVDVRIVEDDVNIKLTKRRRDGCLAAASRALDDLRLDLVHLSGGKIGDCHIYMFNTKIHSGSPVFASAVASRLIEVVDEY
notes: Rice bHLH transcription factor as named in general statements and as 35S-driven effector in the EAT1pro-Luc protoplast assay; also called Os01g0293100
B3: NYN1-bHLH142 (other, not shown: large carriers)
chain: B2 chain
notes: BiFC construct expressed in rice protoplasts

Experiments:
TAPETUM …ON …ON (TDR1) = TAPETUM …ON …ON (TDR1) (Oryza sativa (rice), UniProt Q6YUS3 1-552); assay: cell-based or functional assay
ETERNAL TAPETUM 1 (EAT1) = target: B1; assay: yeast two-hybrid and BiFC (FIG. 13)
CYN1-EAT1 = target: T1, CYN1-EAT1; assay: BiFC in rice protoplasts
Method: Next, the tested genes were introduced into pSAT5-DEST_CYN1 and pSAT4(A)-DEST_NYN1. Ballistic bombardment-mediated transient transformation in rice protoplasts was carried out following a previously published protocol³⁶. Florescence images were photographed on a LSM 780 Plus ELYRA S.1 confocal microscope with Plan-Apochromat 40×/1.4 oil objective lens (Zeiss, Germany).

Binder: B1
Luc expression from the EAT1 promoter (EAT1pro-Luc) with bHLH142, TDR1 and additional EAT1, transient assay in rice protoplasts (TAPETUM …ON …ON (TDR1)): 18 fold

Binder: B2
binding result (ETERNAL TAPETUM 1 (EAT1)): no binding | Luc expression from the EAT1 promoter (EAT1pro-Luc), transient assay in rice protoplasts (TAPETUM …ON …ON (TDR1)): ≤ 30 fold

Binder: B3
binding result (CYN1-EAT1): no binding
